Assay results: the supplement of paper PMC9112550, “Optimization of the antimicrobial peptide Bac7 by deep mutational scanning” (BMC Biology, 2022)

The sequences below were run on Escherichia coli TOP10 (assay: shrunken log2 fold change of peptide-encoding DNA abundance (4.5 h post-induction vs induction); higher = less antimicrobial activity (less host growth inhibition)). Conditions: time post-induction: 4.5 h; library: site-saturation at positions 5, 18, 19, 20.
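Further: peptides expressed intracellularly from a pBAD plasmid library in pooled LB shake-flask culture, induced with 0.3% L-arabinose, DNA abundance read by NGS, three biological replicates, DESeq2 with apeglm shrinkage.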

Going from RRIRERPPRLPRPRPRPNQFPRP to RRIRHRPPRLPRPRPRPAMPPRP, the “shrunken log2 fold change” value rises from -0.525 to -0.0758.

Going from RRIRGRPPRLPRPRPRPWYNPRP to RRIRDRPPRLPRPRPRPYILPRP, the “shrunken log2 fold change” value falls from -0.358 to -0.592.

RRIRNRPPRLPRPRPRPDKDPRP and RRIRARPPRLPRPRPRPSQNPRP are within 0.2 log units of each other in “shrunken log2 fold change” value: -0.253 for the first, -0.25 for the second.

First: RRIRWRPPRLPRPRPRPLPKPRP
Second: RRIRFRPPRLPRPRPRPPERPRP
The “shrunken log2 fold change” value of the first is lower: 0.12 for the first, 0.891 for the second.

RRIRQRPPRLPRPRPRPLMDPRP and RRIRARPPRLPRPRPRPFRGPRP are within 0.2 log units of each other in “shrunken log2 fold change” value: 0.0125 for the first, -0.0013 for the second.

Going from RRIRQRPPRLPRPRPRPLFPPRP to RRIRIRPPRLPRPRPRPRPFPRP, the “shrunken log2 fold change” value falls from 0.0501 to -0.253.

Compared with RRIRWRPPRLPRPRPRPFQCPRP, RRIRRRPPRLPRPRPRPQHTPRP is higher in “shrunken log2 fold change” value: -0.0406 for the first, 0.191 for the second.

RRIRCRPPRLPRPRPRPFKVPRP and RRIRNRPPRLPRPRPRPWTQPRP are within 0.2 log units of each other in “shrunken log2 fold change” value: -0.0177 for the first, -0.0178 for the second.

Going from RRIRFRPPRLPRPRPRPMFTPRP to RRIRKRPPRLPRPRPRPHCEPRP, the “shrunken log2 fold change” value rises from -0.123 to 0.177.

Compared with RRIRDRPPRLPRPRPRPVGPPRP, RRIRQRPPRLPRPRPRPMYYPRP is higher in “shrunken log2 fold change” value: -0.286 for the first, 0.0048 for the second.

First: RRIRRRPPRLPRPRPRPFNGPRP
Second: RRIRMRPPRLPRPRPRPTCDPRP
The “shrunken log2 fold change” value of the first is lower: 0.0131 for the first, 0.79 for the second.

Compared with RRIRFRPPRLPRPRPRPNKMPRP, RRIRPRPPRLPRPRPRPVRNPRP is higher in “shrunken log2 fold change” value: -0.231 for the first, 0.22 for the second.

First: RRIRIRPPRLPRPRPRPLNEPRP
Second: RRIRQRPPRLPRPRPRPAFPPRP
The “shrunken log2 fold change” value of the first is lower: -0.497 for the first, 0.0799 for the second.

RRIRDRPPRLPRPRPRPQDWPRP and RRIRRRPPRLPRPRPRPKHHPRP are within 0.2 log units of each other in “shrunken log2 fold change” value: 0.324 for the first, 0.346 for the second.

Going from RRIRRRPPRLPRPRPRPPEKPRP to RRIRNRPPRLPRPRPRPSKNPRP, the “shrunken log2 fold change” value falls from 1.6 to -0.267.

First: RRIRWRPPRLPRPRPRPHAYPRP
Second: RRIRARPPRLPRPRPRPIVAPRP
The “shrunken log2 fold change” value of the first is lower: -0.349 for the first, 0.371 for the second.

Compared with RRIRVRPPRLPRPRPRPPSAPRP, RRIRPRPPRLPRPRPRPYTVPRP is lower in “shrunken log2 fold change” value: 0.47 for the first, -0.947 for the second.

Going from RRIRIRPPRLPRPRPRPFIYPRP to RRIRCRPPRLPRPRPRPTQCPRP, the “shrunken log2 fold change” value rises from -0.899 to 0.0468.

First: RRIRPRPPRLPRPRPRPCYLPRP
Second: RRIRARPPRLPRPRPRPDYEPRP
The “shrunken log2 fold change” value of the first is lower: -0.958 for the first, 0.00147 for the second.

RRIRQRPPRLPRPRPRPHTDPRP and RRIRVRPPRLPRPRPRPMFHPRP are within 0.2 log units of each other in “shrunken log2 fold change” value: -0.228 for the first, -0.22 for the second.

Compared with RRIRMRPPRLPRPRPRPRKIPRP, RRIRERPPRLPRPRPRPCRWPRP is lower in “shrunken log2 fold change” value: 0.322 for the first, -0.205 for the second.

Going from RRIRIRPPRLPRPRPRPSEYPRP to RRIRARPPRLPRPRPRPLGTPRP, the “shrunken log2 fold change” value rises from -0.0435 to 0.407.

First: RRIRVRPPRLPRPRPRPYEQPRP
Second: RRIRQRPPRLPRPRPRPAALPRP
The “shrunken log2 fold change” value of the first is lower: -0.285 for the first, 0.247 for the second.

Compared with RRIRCRPPRLPRPRPRPQSGPRP, RRIRMRPPRLPRPRPRPRSPPRP is higher in “shrunken log2 fold change” value: -0.142 for the first, 0.921 for the second.

Going from RRIRIRPPRLPRPRPRPVGHPRP to RRIRSRPPRLPRPRPRPHFMPRP, the “shrunken log2 fold change” value falls from -0.0495 to -0.48.

Compared with RRIRIRPPRLPRPRPRPPWLPRP, RRIRDRPPRLPRPRPRPGRNPRP is lower in “shrunken log2 fold change” value: 0.412 for the first, -0.495 for the second.

First: RRIRHRPPRLPRPRPRPTIDPRP
Second: RRIRIRPPRLPRPRPRPGGPPRP
The “shrunken log2 fold change” value of the first is lower: -0.252 for the first, 0.0365 for the second.

RRIRARPPRLPRPRPRPFNRPRP and RRIRERPPRLPRPRPRPTEHPRP are within 0.2 log units of each other in “shrunken log2 fold change” value: -0.277 for the first, -0.144 for the second.

Going from RRIRARPPRLPRPRPRPSQYPRP to RRIRYRPPRLPRPRPRPVWEPRP, the “shrunken log2 fold change” value falls from -0.00629 to -0.3.

Going from RRIRPRPPRLPRPRPRPYDIPRP to RRIRFRPPRLPRPRPRPQCLPRP, the “shrunken log2 fold change” value rises from -0.88 to -0.0767.

RRIRNRPPRLPRPRPRPRTNPRP and RRIRNRPPRLPRPRPRPSSQPRP are within 0.2 log units of each other in “shrunken log2 fold change” value: -0.166 for the first, -0.208 for the second.

Going from RRIRVRPPRLPRPRPRPMEDPRP to RRIRNRPPRLPRPRPRPWCRPRP, the “shrunken log2 fold change” value falls from 0.0593 to -0.525.

First: RRIRIRPPRLPRPRPRPCNWPRP
Second: RRIRVRPPRLPRPRPRPCAAPRP
The “shrunken log2 fold change” value of the first is lower: -0.135 for the first, 0.121 for the second.

Compared with RRIRNRPPRLPRPRPRPNFNPRP, RRIRARPPRLPRPRPRPCPYPRP is higher in “shrunken log2 fold change” value: -0.734 for the first, -0.359 for the second.

Going from RRIRYRPPRLPRPRPRPRAGPRP to RRIRCRPPRLPRPRPRPFTLPRP, the “shrunken log2 fold change” value falls from 0.461 to -0.048.

Going from RRIRTRPPRLPRPRPRPRPLPRP to RRIRCRPPRLPRPRPRPSMFPRP, the “shrunken log2 fold change” value falls from 0.295 to -0.651.

Going from RRIRSRPPRLPRPRPRPYGFPRP to RRIRYRPPRLPRPRPRPQFYPRP, the “shrunken log2 fold change” value falls from -0.85 to -1.86.

In the case of RRIRDRPPRLPRPRPRPGCYPRP, the “shrunken log2 fold change” value is reported as 0.0592.
